{
  "source": "patent US20060029546A1",
  "about": "“Materials and methods for identifying anti-schizophrenic agents” (deCODE Genetics, Inc., priority 2004, published 2006)",
  "molecules": {"B1": {"name": "NRG1: recombinant human HRG-αEGF domain; R&D Systems; polypeptide growth factor Neuregulin 1 (protein)", "chain": "SHLVKCAEKEKTFCVNGGECFMVKDLSNPSRYLCKCQPGFTGARCTENVPMKVQNQEKAEELYQK"}},
  "key": {"[1]": {"tested_on": "ErbB4", "experiment": "ErbB4 tyrosine phosphorylation in HEK293 cells (Western blot)", "format": "cell-based", "conditions": "HEK293 cells expressing ErbB4 and Fyn-V5, 7.2 nM NRG1 for 10 minutes", "method": "(§1) To determine whether NRG1-induced activation of ErbB4 leads to Fyn phosphorylation, NRG1 exposure of HEK293 cells stably expressing ErbB4 and Fyn-V5 were activated with 7.2 nM NRG1 (R&D Systems; Minneapolis, Minn.) for 10 minutes and lysed using RIPA buffer. […] There was no change in Fyn Tyr531 phosphorylation. […] Fyn is activated either by dephophorylation of Tyr531 with loss of the SH2 domain interaction, or through displacement of the SH2 domain by a second tyrosine phosphorylated binding partner allowing auto-phosphorylation on the Fyn activation loop residue Tyr420. Alternatively, Fyn can be phosphorylated on Tyr420 and activated directly by a second kinase. Thus, the NRG1-stimulated increase in Fyn Tyr420 phosphorylation may be through stimulation of Fyn auto-phosphorylation, through phosphorylation of Fyn by ErbB4, or through phosphorylation of Fyn by an ErbB4 activated tyrosine kinase other than Fyn.\nThus, NRG1-induced ErbB4 phosphorylation under conditions in which Fyn and related Src-family kinases were inhibited by PP2 (selective Src-family kinase inhibitor described above). […] This may result in the creation of additional SH2 domain docking sites, thus leading to further activation of Fyn as part of a positive feedback mechanism involving NRG1, ErbB4 and Src-family kinases."}, "[2]": {"target": "T1, ErbB4 (Homo sapiens, UniProt Q15303)", "T1 construct": "host or cells: BE(2)-M17 neuroblastoma, retinoic-acid differentiated", "T1 sequence (Q15303 26-1308)": "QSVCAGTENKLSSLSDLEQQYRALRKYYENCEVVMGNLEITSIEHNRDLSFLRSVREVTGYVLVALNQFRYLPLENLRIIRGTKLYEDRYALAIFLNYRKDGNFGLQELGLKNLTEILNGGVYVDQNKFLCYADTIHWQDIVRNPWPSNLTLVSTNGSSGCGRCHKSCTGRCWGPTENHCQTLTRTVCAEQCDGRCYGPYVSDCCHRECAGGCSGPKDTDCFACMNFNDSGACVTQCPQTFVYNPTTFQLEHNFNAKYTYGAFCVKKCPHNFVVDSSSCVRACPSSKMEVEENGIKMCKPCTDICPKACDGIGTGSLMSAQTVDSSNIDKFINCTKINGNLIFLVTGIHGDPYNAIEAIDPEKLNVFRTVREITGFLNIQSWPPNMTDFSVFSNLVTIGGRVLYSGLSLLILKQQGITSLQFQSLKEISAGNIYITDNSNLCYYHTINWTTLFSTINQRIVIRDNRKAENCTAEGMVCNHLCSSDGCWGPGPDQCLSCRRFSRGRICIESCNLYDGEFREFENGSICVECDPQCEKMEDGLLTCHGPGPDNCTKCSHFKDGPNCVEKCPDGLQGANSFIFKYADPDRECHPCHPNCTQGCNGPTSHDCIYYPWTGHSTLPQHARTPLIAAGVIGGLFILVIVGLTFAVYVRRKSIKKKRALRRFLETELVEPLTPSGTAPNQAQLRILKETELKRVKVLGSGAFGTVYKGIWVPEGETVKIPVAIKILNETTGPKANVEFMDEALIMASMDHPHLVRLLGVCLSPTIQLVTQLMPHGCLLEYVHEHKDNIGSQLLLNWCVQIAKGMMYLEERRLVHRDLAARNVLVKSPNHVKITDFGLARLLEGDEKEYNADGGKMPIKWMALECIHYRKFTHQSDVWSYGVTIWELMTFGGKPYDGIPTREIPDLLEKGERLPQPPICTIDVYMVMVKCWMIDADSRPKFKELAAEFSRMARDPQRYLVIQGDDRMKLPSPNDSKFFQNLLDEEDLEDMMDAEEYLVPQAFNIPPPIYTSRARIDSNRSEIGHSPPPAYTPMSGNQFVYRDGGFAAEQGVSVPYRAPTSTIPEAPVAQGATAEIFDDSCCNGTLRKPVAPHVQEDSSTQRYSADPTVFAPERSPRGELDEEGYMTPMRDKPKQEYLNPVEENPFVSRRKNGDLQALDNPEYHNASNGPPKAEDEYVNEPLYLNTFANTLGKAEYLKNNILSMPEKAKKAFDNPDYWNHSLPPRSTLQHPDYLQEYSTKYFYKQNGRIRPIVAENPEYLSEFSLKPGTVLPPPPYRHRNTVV", "experiment": "ErbB4 tyrosine phosphorylation in differentiated BE(2)-M17 neuroblastoma cells", "format": "cell-based", "conditions": "stimulation for 10 minutes", "method": "(§2) Studies were carried out to determine if NRG1 signaling, mediated by activation of Src-family kinases, results in changes in the phosphorylation state of regulatory tyrosine residues on NR2B. BE(2)-M 17 human neuroblastoma cells (ECACC No. 95011816) have a neuron-like appearance after differentiation for 72 hours in the presence of 10 μM retinoic acid (RA; Sigma, St. Louis, Mo.) (Hanada et al., Can. Res. 53: 4978-4986, 1993). […] As RA differentiation induces NR2B, but not NR2A, expression, it was expected that the functional NMDA receptor channels expressed in these cells comprised of NR1 and NR2B subunits. Stimulation of differentiated BE(2)-M17 cells with NRG1 for 10 minutes increased ErbB4 tyrosine phosphorylation (FIG. 2), increased Fyn/Src Tyr420 phosphorylation (indicative of increased Src-family kinase activity), and increased Pyk2 Tyr402 phosphorylation. Pyk2 Tyr402 is an auto-phosphorylation site involved in Src-family kinase recruitment (Dikic et al., Nature 383: 547-550, 1996). In addition, a coincident increase in NR2B Tyr1472 phosphorylation was also observed (FIG. 2). Thus, NRG1 signaling through ErbB4 modulates NR2B tyrosine phosphorylation in neuroblastoma cells."}, "[3]": {"tested_on": "MAPK p44/42", "experiment": "MAPK p44/42 activation in HEK293 cells stably expressing ErbB4 and Fyn-V5", "format": "cell-based", "conditions": "7.2 nM NRG1 for 10 minutes"}, "[4]": {"tested_on": "NR2B", "experiment": "NR2B Tyr1472 phosphorylation in differentiated BE(2)-M17 neuroblastoma cells", "format": "cell-based, human", "conditions": "stimulation for 10 minutes", "method": "as §2"}, "[5]": {"tested_on": "ErbB4", "experiment": "ErbB4 tyrosine phosphorylation and kinase activity in CHO-K1 cells expressing ErbB4", "format": "cell-based", "method": "The initial step of NRG1 signaling is activation of ErbB4 kinase activity and auto-phosphorylation on tyrosine residues. An increase in ErbB4 tyrosine phosphorylation and associated kinase activity was observed when CHO-K1 cells (ECACC Accession No. 85051005) expressing ErbB4 were exposed to NRG1 (recombinant human HRG-αEGF domain; R&D Systems, Minneapolis, Minn.) in serum free medium for 0-15 minutes. Following immunoprecipitation of ErbB4, kinase activity was measured using a peptide substrate. Maximum ErbB4 kinase activity was detected within 1 minute of NRG1 exposure but returned to the pre-stimulation level by 15 minutes."}, "[6]": {"tested_on": "Fyn", "sequence (P06241 whole entry, species assumed)": "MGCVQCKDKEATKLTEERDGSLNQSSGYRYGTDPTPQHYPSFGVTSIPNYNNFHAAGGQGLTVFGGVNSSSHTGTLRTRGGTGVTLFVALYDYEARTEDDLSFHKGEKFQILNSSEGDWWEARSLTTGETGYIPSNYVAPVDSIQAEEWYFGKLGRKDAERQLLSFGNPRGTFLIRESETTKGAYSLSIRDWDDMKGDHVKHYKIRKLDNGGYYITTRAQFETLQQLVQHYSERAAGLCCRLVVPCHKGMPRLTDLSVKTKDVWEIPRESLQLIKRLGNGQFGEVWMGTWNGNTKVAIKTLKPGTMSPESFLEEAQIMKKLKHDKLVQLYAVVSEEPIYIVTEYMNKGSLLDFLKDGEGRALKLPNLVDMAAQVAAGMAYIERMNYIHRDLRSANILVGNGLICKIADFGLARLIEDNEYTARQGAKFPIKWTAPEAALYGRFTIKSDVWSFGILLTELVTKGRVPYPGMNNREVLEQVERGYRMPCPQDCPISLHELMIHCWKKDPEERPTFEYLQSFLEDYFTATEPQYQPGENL", "experiment": "Fyn kinase activity after NRG1 stimulation of cells", "format": "cell-based", "method": "To test if the observed increase in Fyn Tyr420 phosphorylation was associated with enhanced catalytic activity, Fyn kinase activity was measured after NRG1 stimulation. Fyn kinase activity was increased within 5 minutes of NRG1 stimulation, reached maximum activity after 7 minutes, and returned to pre-stimulation levels within 15 minutes."}, "[7]": {"tested_on": "Pyk2", "experiment": "Pyk2 Tyr402 phosphorylation in differentiated BE(2)-M17 neuroblastoma cells", "format": "cell-based, human", "conditions": "stimulation for 10 minutes", "method": "as §2"}, "[8]": {"tested_on": "Fyn", "experiment": "Fyn phosphorylation in HEK293 cells stably expressing ErbB4 and Fyn-V5 (Western blot)", "format": "cell-based", "method": "as §1\nThese alternatives were distinguished by applying PP2 (25 nM; Calbiochem, San Diego, Calif.) a relatively selective Src-family kinase inhibitor, to inhibit Fyn while ErbB4 signaling was stimulated with NRG1. […] Fyn was phosphorylated at a low level on Tyr420 under basal conditions. […] After NRG1 stimulation, an increase in Fyn Tyr420 phosphorylation was seen, even under conditions in which PP2 was used to inhibit p59 Fyn autophosphorylation. […] Thus, ErbB4 or an ErbB4 activated tyrosine kinase may phosphorylate Fyn on Tyr420 in response to NRG1 stimulation and activate the kinase directly."}, "[9]": {"tested_on": "Fyn/Src", "experiment": "Fyn/Src Tyr420 phosphorylation in differentiated BE(2)-M17 neuroblastoma cells", "format": "cell-based, human", "conditions": "stimulation for 10 minutes", "method": "as §2"}, "[10]": {"tested_on": "MAPK pathway (serum response element luciferase reporter)", "experiment": "SRE-luciferase reporter gene assay in CHO-K1 cells expressing ErbB4 or ErbB4 and Fyn", "format": "cell-based", "method": "CHO-K1 cells expressing only ErbB4 were constructed, and subsequently a subclone co-expressing Fyn was identified. The parental ErbB4 expressing cell line and the subclone co-expressing ErbB4 and Fyn continued to express similar levels of ErbB4 as shown by Western blot. The cells also contained a reporter gene sensitive to MAPK pathway activation, the luciferase gene under the control of a promoter containing a serum response element (SRE). The cells were activated for 4 hours with 0-57.6 nM and the luciferase assay was performed using the Dual-Luciferase Reported assay system (Promega, Madison, Wis.) according to the manufacturer's instructions. Induction of the luciferase reporter gene by NRG1 was amplified two-fold (p<0.05) in cells co-expressing ErbB4 and Fyn as compared to cells expressing only ErbB4. No significant differences in baseline luciferase activity or in NRG1 EC50 (˜1 nM) were found between the two cell lines."}, "[11]": {"tested_on": "NMDA receptor NR2B subunit", "experiment": "NR2B tyrosine phosphorylation in SK-N-BE(2)-M17 cells grown with retinoic acid", "format": "cell-based", "conditions": "immunoprecipitation, anti-phosphotyrosine Western blot", "method": "To determine if D150838 modulates tyrosine phosphorylation of the NMDA receptor, SK-N-BE(2)-M17 cells were grown for 72 house in the presence of retinoic acid to induce expression of the NMDA receptor NR2B subunit. The cells were contacted with NRG1 or D150838, the NR2B subunit was immunoprecipitated, and the level of tyrosine phosphorylation was detected by Western blot analysis with an anti-phosphotyrosine antibody. […] Phosphorylation of tyrosine residue 1472 was detected after exposure to D150838."}},
  "data": [
    {"molecule": "B1", "values": [
      {"measurement": "ErbB4 tyrosine phosphorylation", "setting": "[1]", "result": "tyrosine phosphorylation of ErbB4"},
      {"measurement": "ErbB4 tyrosine phosphorylation", "setting": "[2]", "result": "increased"},
      {"measurement": "MAPK p44/42 Thr202/Tyr204 phosphorylation", "setting": "[3]", "result": "increase"},
      {"measurement": "NR2B Tyr1472 phosphorylation", "setting": "[4]", "result": "increase"},
      {"measurement": "time of return of ErbB4 kinase activity to pre-stimulation level", "setting": "[5]; after NRG1 exposure", "result": "≤ 15", "unit": "min"},
      {"measurement": "time to maximum ErbB4 kinase activity", "setting": "[5]; after NRG1 exposure", "result": "≤ 1", "unit": "min"},
      {"measurement": "ErbB4 tyrosine phosphorylation and associated kinase activity", "setting": "[5]; serum free medium, 0-15 minutes", "result": "increase"},
      {"measurement": "time of maximum Fyn kinase activity", "setting": "[6]; after NRG1 stimulation", "result": 7, "unit": "min"},
      {"measurement": "time of return of Fyn kinase activity to pre-stimulation levels", "setting": "[6]; after NRG1 stimulation", "result": "≤ 15", "unit": "min"},
      {"measurement": "time to increased Fyn kinase activity", "setting": "[6]; after NRG1 stimulation", "result": "≤ 5", "unit": "min"},
      {"measurement": "Fyn kinase activity", "setting": "[6]; cells co-expressing Fyn and catalytically inactive ErbB4 D843A mutant", "result": "No increase"},
      {"measurement": "Pyk2 Tyr402 phosphorylation", "setting": "[7]", "result": "increased"},
      {"measurement": "Fyn Tyr420 phosphorylation", "setting": "[8]; 7.2 nM NRG1 for 10 minutes", "result": "phosphorylation of Fyn on Tyr420"},
      {"measurement": "Fyn Tyr531 phosphorylation", "setting": "[8]; 7.2 nM NRG1 for 10 minutes", "result": "no change"},
      {"measurement": "Fyn Tyr420 phosphorylation after NRG1 stimulation with PP2 present", "setting": "[8]; PP2 used to inhibit Fyn autophosphorylation", "result": "increase"},
      {"measurement": "Fyn/Src Tyr420 phosphorylation", "setting": "[9]", "result": "increased"},
      {"measurement": "EC50", "setting": "[10]; 4 hours, 0-57.6 nM, no significant difference between the two cell lines, read-out: EC50, luciferase reporter induction", "result": "~1", "unit": "nM"},
      {"measurement": "amplification of luciferase reporter induction in cells co-expressing ErbB4 and Fyn compared to cells expressing only ErbB4", "setting": "[10]; p<0.05", "result": "two-fold"},
      {"measurement": "tyrosine phosphorylation of the NR2B subunit", "setting": "[11]", "result": "induced tyrosine phosphorylation"}
    ]}
  ]
}
